{"source": "paper PMC3671127", "key": {"[1]": {"target": "HIV-1 Pol polyprotein with a catalytically dead protease (sPol-PR_(D25N)) (HIV-1 (IIIB))", "experiment": "AlphaScreen or HTRF; 33 nM GST-sPol-PR_(D25N) and 33 nM His-MBP-sPol-PR_(D25N) kept constant, CX05045 (raltegravir, DMSO as controls) titrated 1:10 from 100 uM; 25 mM Tris/HCl pH 7.5, 150 mM NaCl, 1 mM dithiothreitol, 1 mM MgCl2, 0.1% BSA, 0.1% Tween 20; overnight at 4°C, then glutathione donor and Ni-chelate acceptor beads 2 h at 23°C"}, "[2]": {"target": "HIV-1 integrase A128T (LEDGIN-resistant), fluorescently labelled (IN_(A128T)-mTFP1 and IN_(A128T)-mVenus) in virions (HIV-1)", "experiment": "FRET or BRET; single virus FRET by acceptor photobleaching (TIRF microscopy) on fixed virions with IN-mTFP1 donor and IN-mVenus acceptor; FRET ratio = FD/FDA; virions produced in the presence of CX05045 (5-fold EC50)"}, "[3]": {"target": "HIV-1 integrase A128T (LEDGIN-resistant), fluorescently labelled (IN_(A128T)-mTFP1 and IN_(A128T)-mVenus) in virions (HIV-1)", "experiment": "FRET or BRET; single virus FRET by acceptor photobleaching (TIRF microscopy) on fixed virions with IN-mTFP1 donor and IN-mVenus acceptor; FRET ratio = FD/FDA, unity means no FRET; virions produced in the presence of DMSO"}, "[4]": {"target": "HIV-1 integrase, wild type, fluorescently labelled (IN-mTFP1 and IN-mVenus) in virions (HIV-1) (UniProt P12497)", "experiment": "FRET or BRET; single virus FRET by acceptor photobleaching (TIRF microscopy) on fixed virions with IN-mTFP1 donor and IN-mVenus acceptor; FRET ratio = FD/FDA; virions produced in the presence of CX05045 (5-fold EC50)"}, "[5]": {"target": "HIV-1 integrase, wild type, fluorescently labelled (IN-mTFP1 and IN-mVenus) in virions (HIV-1) (UniProt P12497)", "experiment": "FRET or BRET; single virus FRET by acceptor photobleaching (TIRF microscopy) on fixed virions with IN-mTFP1 donor and IN-mVenus acceptor; FRET ratio = FD/FDA; virions produced in the presence of raltegravir (5-fold EC50)"}, "[6]": {"target": "HIV-1 integrase, wild type, fluorescently labelled (IN-mTFP1 and IN-mVenus) in virions (HIV-1) (UniProt P12497)", "experiment": "FRET or BRET; single virus FRET by acceptor photobleaching (TIRF microscopy) on fixed virions with IN-mTFP1 donor and IN-mVenus acceptor; FRET ratio = FD/FDA, unity means no FRET; virions produced in the presence of DMSO"}}, "data": [{"substance": "HIV-1 Pol polyprotein with a catalytically dead protease (sPol-PR_(D25N)) (natural protein)", "values": [{"measurement": "EC50 of CX05045 for the enhancement of Pol-Pol multimerization", "setting": "[1]", "value": 8.7, "unit": "nM"}]}, {"substance": "HIV-1 integrase A128T (LEDGIN-resistant), fluorescently labelled (IN_(A128T)-mTFP1 and IN_(A128T)-mVenus) in virions (enzyme)", "values": [{"measurement": "mean FRET ratio (CX05045)", "setting": "[2]", "value": 1.23}, {"measurement": "mean FRET ratio (DMSO)", "setting": "[3]", "value": 1.26}]}, {"substance": "HIV-1 integrase, wild type, fluorescently labelled (IN-mTFP1 and IN-mVenus) in virions (from UniProt P12497 1148-1435) (enzyme)", "values": [{"measurement": "mean FRET ratio (CX05045)", "setting": "[4]", "value": 1.43}, {"measurement": "mean FRET ratio (raltegravir)", "setting": "[5]", "value": 1.22}, {"measurement": "mean FRET ratio (DMSO)", "setting": "[6]", "value": 1.25}]}]}
